{
  "source": "paper PMC6328252",
  "about": "(Chembiochem : a European journal of chemical biology, 2017)",
  "key": {"[1]": {"target": "T1, PA1618 (Pseudomonas aeruginosa, UniProt Q9I3A4)", "experiment": "steady-state competitive inhibition of benzoyl-CoA hydrolysis", "format": "biochemical"}, "[2]": {"target": "T1, PA1618", "experiment": "X-ray crystal structure", "format": "biochemical"}, "[3]": {"target": "T1, PA1618", "experiment": "X-ray crystal structure", "format": "biochemical", "remark": "listed apart in the source"}, "[4]": {"tested_on": "CC(C)(COP(=O)(O)OP(=O)(O)OC[C@H]1O[C@@H](n2cnc3c(N)ncnc32)[C@H](O)[C@@H]1OP(=O)(O)O)[C@@H](O)C(=O)NCCC(=O)NCCSC(=O)c1ccccc1", "experiment": "steady-state kinetics", "format": "biochemical, Pseudomonas aeruginosa", "conditions": "pH 7.5; 25.0 °C"}, "[5]": {"substrate": "CC(C)(COP(=O)(O)OP(=O)(O)OC[C@H]1O[C@@H](n2cnc3c(N)ncnc32)[C@H](O)[C@@H]1OP(=O)(O)O)[C@@H](O)C(=O)NCCC(=O)NCCSC(=O)/C=C/c1ccc(O)cc1", "experiment": "steady-state kinetics", "format": "biochemical, Pseudomonas aeruginosa", "conditions": "pH 7.5; 25.0 °C"}, "[6]": {"substrate": "CC(C)(COP(=O)(O)OP(=O)(O)OC[C@H]1O[C@@H](n2cnc3c(N)ncnc32)[C@H](O)[C@@H]1OP(=O)(O)O)[C@@H](O)C(=O)NCCC(=O)NCCSC(=O)c1cc(O)c2ccccc2c1O", "experiment": "steady-state kinetics", "format": "biochemical, Pseudomonas aeruginosa", "conditions": "pH 7.5; 25.0 °C"}, "[7]": {"substrate": "CCCCCC(=O)SCCNC(=O)CCNC(=O)[C@H](O)C(C)(C)COP(=O)(O)OP(=O)(O)OC[C@H]1O[C@@H](n2cnc3c(N)ncnc32)[C@H](O)[C@@H]1OP(=O)(O)O", "experiment": "steady-state kinetics", "format": "biochemical, Pseudomonas aeruginosa", "conditions": "pH 7.5; 25.0 °C"}, "[8]": {"substrate": "CC(C)(COP(=O)(O)OP(=O)(O)OC[C@H]1O[C@@H](n2cnc3c(N)ncnc32)[C@H](O)[C@@H]1OP(=O)(O)O)[C@@H](O)C(=O)NCCC(=O)NCCSC(=O)c1ccccc1", "experiment": "steady-state kinetics", "format": "biochemical, Pseudomonas aeruginosa", "conditions": "pH 7.5; 25.0 °C", "remark": "listed apart in the source"}, "[9]": {"substrate": "CC(C)(COP(=O)(O)OP(=O)(O)OC[C@H]1O[C@@H](n2cnc3c(N)ncnc32)[C@H](O)[C@@H]1OP(=O)(O)O)[C@@H](O)C(=O)NCCC(=O)NCCSC(=O)c1ccc(O)cc1", "experiment": "purified protein", "format": "biochemical, Pseudomonas aeruginosa", "conditions": "pH 7.5; 25.0 °C"}},
  "data": [
    {"molecule": "CC(C)(COP(=O)(O)OP(=O)(O)OC[C@H]1O[C@@H](n2cnc3c(N)ncnc32)[C@H](O)[C@@H]1OP(=O)(O)O)[C@@H](O)C(=O)NCCC(=O)NCCSCC(=O)c1ccc(O)cc1O", "note": "[2,4-Dihydroxyphenacyl-CoA]", "values": [
      {"measurement": "Ki", "setting": "[1]", "result": "12 ± 1", "unit": "µM"}
    ]},
    {"molecule": "CC(C)(COP(=O)(O)OP(=O)(O)OC[C@H]1O[C@@H](n2cnc3c(N)ncnc32)[C@H](O)[C@@H]1OP(=O)(O)O)[C@@H](O)C(=O)NCCC(=O)NCCSCC(=O)c1ccccc1", "note": "[Phenacyl-CoA]", "values": [
      {"measurement": "Ki", "setting": "[2]", "result": "35 ± 5", "unit": "µM"}
    ]},
    {"molecule": "CC(C)(COP(=O)(O)OP(=O)(O)OC[C@H]1O[C@@H](n2cnc3c(N)ncnc32)[C@H](O)[C@@H]1O)[C@@H](O)C(=O)NCCC(=O)NCCOC(=O)c1ccccc1", "note": "[Benzoyl-OdCoA]", "values": [
      {"measurement": "Ki", "setting": "[3]", "result": "19 ± 3", "unit": "µM"}
    ]},
    {"molecule": "PA1618 (Pseudomonas aeruginosa PAO1; Q49A)", "values": [
      {"measurement": "Km", "setting": "[4]", "result": "5.0 ± 0.3", "unit": "µM"},
      {"measurement": "kcat", "setting": "[4]", "result": "0.022 ± 0.003", "unit": "s⁻¹"},
      {"measurement": "kcat/Km", "setting": "[4]", "result": 4400, "unit": "M⁻¹ s⁻¹"}
    ]},
    {"molecule": "CCCCCCCCCCC(=O)SCCNC(=O)CCNC(=O)[C@H](O)C(C)(C)COP(=O)(O)OP(=O)(O)OC[C@H]1O[C@@H](n2cnc3c(N)ncnc32)[C@H](O)[C@@H]1OP(=O)(O)O", "note": "[Undecanyl-CoA]", "values": [
      {"measurement": "Ki", "setting": "[1]; read-out: PA1618 Ki", "result": "3.4 ± 0.3", "unit": "µM"}
    ]},
    {"molecule": "PA1618 (Pseudomonas aeruginosa PAO1) (protein) MSLWRQTPDLEQLNASQKNSIGDLLGIRFEAFDDESLTASMPVDSRTHQPFGLLHGGASVVLAESLGSMASYLCVDTSQYYCVGLEVNANHLRGLRSGRVTAVARAIHLGRTTHVWDIRLSGDDGKPSCIARLTMAVVPLAGRAG", "values": [
      {"measurement": "Km", "setting": "[5]", "result": "2.7 ± 0.2", "unit": "µM"},
      {"measurement": "kcat", "setting": "[5]", "result": "2.5 ± 0.1", "unit": "s⁻¹"},
      {"measurement": "kcat/Km", "setting": "[5]", "result": 930000, "unit": "M⁻¹ s⁻¹"},
      {"measurement": "Km", "setting": "[6]", "result": "2.1 ± 0.1", "unit": "µM"},
      {"measurement": "kcat", "setting": "[6]", "result": "0.55 ± 0.01", "unit": "s⁻¹"},
      {"measurement": "kcat/Km", "setting": "[6]", "result": 280000, "unit": "M⁻¹ s⁻¹"},
      {"measurement": "Km", "setting": "[7]", "result": "20 ± 2", "unit": "µM"},
      {"measurement": "kcat", "setting": "[7]", "result": "0.11 ± 0.01", "unit": "s⁻¹"},
      {"measurement": "kcat/Km", "setting": "[7]", "result": 5200, "unit": "M⁻¹ s⁻¹"},
      {"measurement": "Km", "setting": "[8]", "result": "12 ± 1", "unit": "µM"},
      {"measurement": "kcat", "setting": "[8]", "result": "56 ± 1", "unit": "s⁻¹"},
      {"measurement": "kcat/Km", "setting": "[8]", "result": "4.6e+06", "unit": "M⁻¹ s⁻¹"},
      {"measurement": "Km", "setting": "[9]", "result": "3.6 ± 0.3", "unit": "µM"},
      {"measurement": "kcat", "setting": "[9]", "result": "9.3 ± 0.2", "unit": "s⁻¹"},
      {"measurement": "kcat/Km", "setting": "[9]", "result": "3.1e+06", "unit": "M⁻¹ s⁻¹"}
    ]}
  ]
}
